{"source": "the DeepSol protein solubility set", "data": [{"experiment": "soluble on expression in E. coli; label from the status in PepcDB or PDB records", "values": [{"sequence": "MGSDKIHHHHHHMNAQEERSRDWVSIRRPFAKAGLETMTARYIQQSFKPHAHDEYVIGIIEGGVHSVWCRGIHHNMPSGTVVTMHPGDVHYGNAAIAEGWKQRMIYISENEIGKFISDIAGGDKFLLPDFKQTFHDRPDLAHSFAQFHEVLHSSPLALARDVALDSIMRVTIGALSPDFVKAKDAKQPSGRIADAVEFLHNRIEDDVTLDELCDVAGLRRRQTIEAFKRCTGLPPHAYHVIQKVKAVKTMLRDGFSATEAAARAGFADQSHMTRHFVGVVGMTPGAYALDCQKKY", "soluble on expression in E. coli": "not soluble"}, {"sequence": "AHHHHHHGSKILWAPWRIEYIRAPKHEGCIFCDFPRENRDRERLILYRGKHAFIIMNNYPYNPGHVMVAPYRHVASVEDLTDEEMLEIMKLAALIMKAIRKVMKPDGFNLGFNIGKVAGAGVDGHVHLHIVPRWNGDTNFMPVIADTKVIPESLEQAYEELKKALEEIENAE", "soluble on expression in E. coli": "soluble"}, {"sequence": "MGHHHHHHSHAAMAVEPTQIQLSKRWREIESKFAQFRRLNFAQIHTVREETMMVMTEDMPLEISYVPSTYLTEITHVSQALLEVEQLLNAPDLCAKDFEDLFKQEESLKNIKDSLQQSSGRIDIIHSKKTAALQSATPVERVKLQEALSQLDFQWEKVNKMYKDRQGRFDRSVEKWRRFHYDIKIFNQWLTEAEQFLRKTQIPENWEHAKYKWYLKELQDGIGQRQTVVRTLNATGEEIIQQSSKTDASILQEKLGSLNLRWQEVCKQLSDRKKRLEEQKNILSEFQRDLNEFVLWLEEADNIASIPLEPGKEQQLKEKLEQVKLLVEELPLRQGILKQLNETGGPVLVSAPIS", "soluble on expression in E. coli": "not soluble"}, {"sequence": "MAYLYELEGIYAQLQSMDLDEETFQDTLDSIDFQSDLENNIEYFVKMLKNVQADAEKYKAEKEAFYKKQKQAEAKAEKYKETIRLAMELSQKKKVDAGMFKVSLRRSKKVEILDETKIPLDYMQEKIEYKPMKAEISKALKSGIDISGVELIETESLQVK", "soluble on expression in E. coli": "not soluble"}, {"sequence": "MGSDKIHHHHHHMATVTTSEGSAERREADSGALARGLNILSRLHEAARPLSLQDIAESVGLPTTTCHRLLQSLDVAGYVYREGSLYCPTPRAACPLPLEHPLNRLRRDTAPLMRELQERHGPSVLLIAFLGDHRVTVECVAGNYSVTPYFDTTVTAPLHASVSGKILLSDRTDEQRDALLGQAPYSARTEWTIRDRAALYAELEEVRKRGWATNQNENVIGICAVGSRLAAPSGRALGAIVLTGPSRFFAKGFDTMRDDLLQACQMLNSTSHAIRTMTQLLGV", "soluble on expression in E. coli": "not soluble"}, {"sequence": "MAFISFRDFMEKAVKDYYSSQRALKDFFTAPELDRAFGEALAEFFSQHLSEFERPALVELGAGRGLLAYDILNYYRANYPDLFNRLKYYIYEFSPYLISKQREVLKNFKNVEWVEELPKVEGIVFSNEFFDALPVHIVKGGKELYVDEKGSEVWLSLENEKVKEFLRRMNYENLNQIVEVCLDCIDMLKKISESLVEGYHFVIDYGYTSEEITKYPEGTVVAYKEHKVVKDFLKEAGNADITAHVNFSALMEYGRDFGLETILFQSQRDFLMHIPTFLNELEKLSWEESAESVERLSRLKTMLISMGDRFKVLLQRKLSQLEHHHHHH", "soluble on expression in E. coli": "not soluble"}, {"sequence": "MSSVYTMKRIWLQKDKKAYQAWRELMEKAELQTTEALDYTVGIYDDTALIASGSLSGKTIKCVAVCKKYQSENLLTQLVVHLLEKLREENQLHSFLYTKPKNEQIFQSLGFQKVVANQEVLFMEQGKPDFADYLGYLTQHKKAGPASSIVMNANPFTKGHQYLVEKAAQESPHVYVFVLSEDKSLFSKEARFAMVQKGVAHLPNVTVLSTEDYLVSSATFPTYFLKEKAPLEVAAIQATLDATLFKERIAPILEIQQRYVGEEPYSEVTAVYNQAMQQVFGQTITLTIVPRLASDGELISATKVRKAMAEGDKETLKKFLPATSYQYLVEHKKLMR", "soluble on expression in E. coli": "not soluble"}, {"sequence": "MALFRGMWSVLKALGRTGVEMCAGCGGRIPSSISLVCIPKCFSSMGSYPKKPMSSYLRFSTEQLPKFKAKHPDAKLSELVRKIAALWRELPEAEKKVYEADFKAEWKAYKEAVSKYKEQLTPSQLMGMEKEARQRRLKEKALVKRRELILLGKPKRPRSAYNIYVSESFQEAKDDSAQGKLKLVNEAWKNLSPEEKQAYIQLAKDDRIRTTYEMKSWEEQMAEVGRSDLIRRSVKRSGDISEH", "soluble on expression in E. coli": "soluble"}, {"sequence": "MYKDFANFIRTNKADLLNNWMNEMEKQSDQLINDIAKEAMYEETSKEFVDLIVSNVTENGSKFNEKLDDFAEKVVHLGWPIHFVTTGLRVFGLLVYTAMRDEDLFLKREEKPEDDAYYRFETWLSSMYNKVVTAYADTWEKTVSIQKSALQELSAPLLPIFEKISVMPLIGTIDTERAKLIIENLLIGVVKNRSEVVLIDITGVPVVDTMVAHHIIQASEAVRLVGCQAMLVGIRPEIAQTIVNLGIELDQIITTNTMKKGMERALALTNREIVEKEG", "soluble on expression in E. coli": "not soluble"}, {"sequence": "MSLTTMVPTVMNTPTRIEAGRQKFLIFDAPSQENLPAYIEEMRAYEVTDLVRTCERTYDDKTVLASGIRPHELIFPDGEAPPDDVIDEWLTLCNAVSQQRGAIAIHCVAGLGRAPVLVAIALIEKGMDPMDAIMFIRERRKGAINRRQLQFLKGYKRRSNYKEGHHHHHH", "soluble on expression in E. coli": "soluble"}, {"sequence": "MELVVKSVAAASVKTATLVIPVGENRKLGAVAKAVDLASEGAISAVLKRGDLAGKPGQTLLLQNLQGLKAERVLLVGSGKDEALGDRTWRKLVASVAGVLKGLNGADAVLALDDVAVNNRDAHYGKYRLLAETLLDGEYVFDRFKSQKVEPRALKKVTLLADKAGQAEVERAVKHASAIATGMAFTRDLGNLPPNLCHPSFLAEQAKELGKAHKALKVEVLDEKKIKDLGMGAFYAVGQGSDQPPRLIVLNYQGGKKADKPFVLVGKGITFDTGGISLKPGAGMDEMKYDMCGAASVFGTLRAVLELQLPVNLVCLLACAENMPSGGATRPGDIVTTMSGQTVEILNTDAEGRLVLCDTLTYAERFKPQAVIDIATLTGACIVALGSHTTGLMGNNDDLVGQLLDAGKRADDRAWQLPLFDEYQEQLDSPFADMGNIGGPKAGTITAGCFLSRFAKAYNWAHMDIAGTAWISGGKDKGATGRPVPLLTQYLLDRAGA", "soluble on expression in E. coli": "soluble"}, {"sequence": "MVDRFGDVLREWRQLRRMSQMDLGLSAGVSPRHISFLESGRALPSRGMVLRLCDELEVPGGARNRWLTSAGLAPAYHSRNGDAPEMAPLTQAVDWMLSRHAPYPAMAVDRHWRLKTMNRPARAMFAATGLGAGDGLIDALLDNPALAAALENRDEVERLSLTRLRTELAHFGRDPVLEQAVARLAERVARQPGAADAPMPAVIPARYRLGEAVLSFFTTITQFGATGDIAMSELRIEMFFPADDATRQMVEALWGNATPGN", "soluble on expression in E. coli": "not soluble"}, {"sequence": "MAHHHHHHMSEQILFDNFPLTFLNKDASEDYEDKNEKTYREKIKNIIEDLKSLRIEINEKYSIRSMLEEKLTLLQKEEQTKENNMKYIMNFSEHNIYEREVLNYQKNIAHLKKQIQTSNSKIKLLLEKEFKVRKQLQINYMNLYDILNERIEYIVENYVKHRKCSCAIYAYKQEKKEE", "soluble on expression in E. coli": "not soluble"}, {"sequence": "MGSDKIHHHHHHMKIKVKLPDGKEKEYDRGITPAEIAKELGIKKAIGAVVNGELWDLKRPIENDCELRLVTLEDPEAPEFYRHTMAHILAQAVMRLYGKENVKLGIGPTIENGFYYDFDIKNGRLTEEDLPKIEQEMKKIIKENLPIERKEISKEEARELFRDQPYKLELIEEIEGNRVTIYRQGEFVDLCRGPHLPSTGIVKHFKLLSVSGAYWRGSEKNPMLTRVYGTAFAKKEDLDNYLKFLEEAQRRDHRKLGPQLELFMLNTEYAPGMPFFLPKGVVVLNELMKFSRELHRERGYQEIFTPLIMNEQLWKISGHWDHYAENMYFIEKDEERYAVKPMNCPGHILVYKSRTVSYRDLPLRFFEFGRVHRYERSGVLHGLMRVRSFTQDDAHIFCTPDQIEEEILGVLDLINTIYSQFGFTYRVELSTMPEDHMGDEAIWEKATTALKNALERAGLSYKVNEGEGAFYGPKIDFHIRDSIGREWQCATIQLDFMMPEKFNVTYIGPDNKEHRAVMIHRAIYGSLERFFGILIEHFAGAFPTWLAPIQVAVIPISEKHNDGAEKVARRISQEGFRVFFDNRRETLGYRIRQAQTQKIPYMIIIGDKELESGKISVRTRTGKEIKDVDPEHFVETLRNEVLSRKLELSMEG", "soluble on expression in E. coli": "not soluble"}, {"sequence": "MKFNIRGENIEVTPALKEYVEKKLSKLERYFDTFPEIKVNLKVYSDKQRVEVTIPFTDLLLRAEETNSDMYAAIDLVVDKLERQIRKHKTKVNRKLREKGSMKTNFILPEAVAVLDEVEEDELELVRTKRFDLKPMDVEEAILQMDMLGHNFFVFTNADTNETNVVYGRKDGKYGLIETKLEHHHHHH", "soluble on expression in E. coli": "not soluble"}]}]}
